In US20090181034A1 (AGENSYS, published 2009):

How the values were obtained:
[1] = biological target: T1, PSCA (prostate stem cell antigen), human (human, UniProt O43653 12-83); assay: FACS titration on SW780 cells, anti-hIgG-PE, Prism sigmoidal dose-response fit
T1 construct: Tested on cells: SW780, LAPC9AI, PC3-PSCA, B300.19-PSCA, prostate cancer xenograft cells and tumour tissue; also called PSCA v.1; PSCA variant 1
Experimental: A panel of seven (7) anti-human PSCA antibodies was tested for their binding affinity to PSCA on SW780 cells, a human bladder cancer cell line expressing high level of PSCA. […] At the end of the incubation, cells were washed and incubated with anti-hIgG-PE detection antibody for 45 min at 4° C. After washing the unbound detection antibodies, the cells were analyzed by FACS; MFI values of each point were obtained using CellQuest Pro software and were used for affinity calculation using Graphpad Prism software: Sigmoidal Dose-Response (variable slope) equation (Table VII and Table VIII).

murine PSCA = biological target: T2, murine PSCA (mouse, UniProt P57096 21-95); assay: FACS on 293T cells expressing murine PSCA, anti-hIgG-PE
T2 construct: whole, on cells; also called mouse PSCA; Mouse-PSCA
T2 sequence (looked up): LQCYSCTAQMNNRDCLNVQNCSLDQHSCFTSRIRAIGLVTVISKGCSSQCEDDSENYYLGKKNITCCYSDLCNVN
Experimental: The cells were incubated with the respective antibodies using the following protocol. […] Specific recognition was determined using anti-hIgG-PE secondary detection antibody.

| Binder | Kd [1] [nM] | binding result (murine PSCA) |
| --- | --- | --- |
| Ha1-5.99 (antibody, IgG2, V domains shown, Fully human MAb from human gamma 2 producing XenoMouse (IgG2, kappa), hybridoma ATCC PTA-6703; Ha1-5.99.1 (subclone label) is treated as the same antibody; also called HA1-5.99.1; Ha1-5.99.1) VH: QVHLQQWGAGLLKPSETLSLTCAVYGGSFSGYYWSWIRQPPGKGLEWIGEINHSGSTSYKPSLKSRVTVSVDTSKNQFSLKLSYVTAADTAVYYCARDRGDYGDFLFDYWGQGTLVTVSS VL: SPGERATLSCRASQSIGSTYLAWYQQKPGQAPRLLIYGASSRATGIPERFSGSGSGTDFTLTISGLEPEDFAVFYCQQCGSSPPTFGQGTKVEIKR | 0.28 |  |
| Ha1-1.16 (antibody, IgG1, V domains shown, Fully human MAb from human gamma 1 producing XenoMouse immunized with PSCA-GST (IgG1, kappa), hybridoma ATCC PTA-6698; Ha1-1.16.1 (subclone label) is treated as the same antibody; also called Ha1-1.16.1) VH: QVQLQQSGPGLVKPSQTLSLTCAISGDSVSSNSAAWNWIRQSPSRGLEWLGRTYYRSKWYNGYAVSVKSRMTINPDTSKNQFSLQLNSVTPEDTAVYYCARERLGELYGMDVWGQGTTVTVSS VL: QLTQSPDSLAVSLGERATINCKSSQNILYRSSKKNHLVWYQQKPGQPPKLLIYWASTRESGVPARFSGSGSGTDFTLTISTLQAEDVAVYYCQQYYSTPPTFGQGTRLEIKR | 6.91 | no binding |
| Ha1-4.37 (antibody, IgG1, V domains shown, Fully human MAb from human gamma 1 producing XenoMouse (IgG1, kappa), hybridoma ATCC PTA-6702) VH: PGALQESGPGLVRPSQTLSLTCTVSGGSISSGGTYYWIWIRQHPGKGLEWIGYIYYSGSTYYNPSLKSRVTISVDTSKNQFSLKLSSVTAADTAVYYCARDGITMVRGISGGMDVWGQGTTVTVSS VL: ASVGDRVTITCRASQSISSHLNWYQQKPGKAPKLLIYAASSLQSGVPSRFSGSGSGTDFTLSISSLQPEDFATYFCQQSYSIPRTFGQGTKVEITR | 0.23 |  |
| Ha1-4.117 (antibody, V domains shown, Fully human MAb from human gamma 1 producing XenoMouse (IgG1, kappa), hybridoma ATCC PTA-6699; A fluorescein conjugate was used for IHC) VH: QVQLQESGPGLVKPSQTLSLTCTVSGGSISSGGYYWIWIRQHPGKGLEWIGYIYYNGNTYYNPSLKSRVTMSVDTSKNQFSLKLSSVTAADTAVYYCARDGITMIRGYYYGMDVWGQGTTVTVSS VL: QLTQSPSSVSASVGDRVTITCRASRGISSWLAWYQQKPGKAPKLLIYTASSLQSGVPSRFSGSGSGTDFTLTISSLQPEDFATYYCQQAYSFPRTFGQGTKVEIKR | 0.32 | binds |
